Measurements reported in article PMC8327350, “Interaction between the transmembrane domains of neurotrophin receptors p75 and TrkA mediates their reciprocal activation” (The Journal of Biological Chemistry, 2021).
No end group written: not given here.

B1: human TrkA-TM (domain or fragment)
chain: MKKDETPFGVSVAVGLAVFACLFLSTLLLVLNKAGRRNK
modifications: also: 15N-labeled in one set, unlabeled in the other
notes: methionine printed before K410; human TrkA transmembrane domain, K410 to K447; the A at 442 is printed underlined and not explained; also called TrkA-TM-wt; TrkA-TMD; source: cell-free expression (E. coli Rosetta(DE3)pLysS S30 extract), in DPC micelles
B2: p75-TM-C257A (C257A point mutant form of p75TM) (domain or fragment, human)
chain: MTRGTTDNLIPVYASILAAVVVGLVAYIAFKRWNSSKQNKQ
modifications: also: 15N-labeled in one set, unlabeled in the other
notes: methionine printed before T245; Seen as monomer, noncovalent homodimer and heterodimer with TrkA-TM in the NMR samples; also called p75-C257A; p75-C257A-TM; source: cell-free expression (E. coli Rosetta(DE3)pLysS S30 extract), in DPC micelles

How the values were obtained:
[1] = target: full-length TrkA tagged with mTurquoise (UniProt P04629)
[2] = target: B2; assay: NMR cross-correlated relaxation (rotational correlation time, hydrodynamic radius); cross-correlated relaxation rates of p75-TM-C257A amide signals (I259, V263, G266, A269, Y270) of monomer, homodimer and heterodimer in DPC micelles, 45 °C; conditions: both partners purified
[3] = target: the molecule itself; assay: NMR titration; unlabeled p75-TM-C257A added incrementally to 0.5 mM 15N-labeled TrkA-TM; DPC micelles, LPR 80, pH 5.9, 318 K, 20 mM sodium phosphate
[4] = target: the molecule itself; assay: NMR cross-correlated relaxation (rotational correlation time, hydrodynamic radius); cross-correlated relaxation rates of p75-TM-C257A amide signals (I259, V263, G266, A269, Y270) of monomer, homodimer and heterodimer in DPC micelles, 45 °C

Sequence of full-length TrkA tagged with mTurquoise (P04629 33-796): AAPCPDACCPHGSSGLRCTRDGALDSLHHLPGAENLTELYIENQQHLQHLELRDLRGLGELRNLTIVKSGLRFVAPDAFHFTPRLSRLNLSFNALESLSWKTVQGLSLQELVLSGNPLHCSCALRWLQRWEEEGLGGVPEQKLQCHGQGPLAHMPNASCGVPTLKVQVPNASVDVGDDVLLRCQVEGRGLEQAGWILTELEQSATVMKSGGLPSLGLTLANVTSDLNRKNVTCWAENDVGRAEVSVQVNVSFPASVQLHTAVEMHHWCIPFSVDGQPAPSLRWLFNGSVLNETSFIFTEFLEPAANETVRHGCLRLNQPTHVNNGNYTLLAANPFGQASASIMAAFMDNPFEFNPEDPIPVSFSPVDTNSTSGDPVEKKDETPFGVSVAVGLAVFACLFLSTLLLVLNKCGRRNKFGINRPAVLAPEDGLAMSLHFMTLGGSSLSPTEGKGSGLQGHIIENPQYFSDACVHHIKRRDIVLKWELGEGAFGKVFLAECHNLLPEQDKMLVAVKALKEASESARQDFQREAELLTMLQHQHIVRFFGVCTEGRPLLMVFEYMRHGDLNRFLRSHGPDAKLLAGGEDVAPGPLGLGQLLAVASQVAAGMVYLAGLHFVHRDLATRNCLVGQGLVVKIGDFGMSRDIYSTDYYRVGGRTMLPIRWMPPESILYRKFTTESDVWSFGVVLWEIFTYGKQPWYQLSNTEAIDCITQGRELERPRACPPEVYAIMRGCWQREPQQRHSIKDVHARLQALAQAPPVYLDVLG

In the case of “full-length p75 tagged with enhanced YFP (from UniProt P08138 29-427) (receptor)”, the EC50 of NGF for TrkA phosphorylation (activation loop, Western blot) in HeLa cells coexpressing TrkA and p75, NGF 0 to 100 ng/ml [1] is reported as 0.299 nM.

In the case of “p75-TNFR (p75 with its TMD swapped with the one from the TNFR) (from UniProt P08138 29-427) (receptor)”, the EC50 of NGF for TrkA phosphorylation (activation loop, Western blot) in HeLa cells coexpressing TrkA and p75-TNFR, NGF 0 to 100 ng/ml [1] is reported as 2.7 nM.

In the case of “p75–AGA mutation (triple mutation A262,G266,A269 to Ile) (from UniProt P08138 29-427) (receptor)”, the EC50 of NGF for TrkA phosphorylation (activation loop, Western blot) in HeLa cells coexpressing TrkA and p75–AGA, NGF 0 to 100 ng/ml [1] is reported as 1.7 nM.

B1 was tested, and the “stoichiometry N” value [2] was 1 TrkA-TM per p75-TM-C257A (heterodimer) and the binding result [3] was “binds”.

B2 was tested, and the “stoichiometry N” value [4] was 2 chains in the oligomer (homodimer).
